From the supplement of paper PMC10567573

B1: DCTD (parent)
chain: VKGCSMYVALFPCNECAKLIIQAG
B2: TRIM35 (parent)
chain: PTCPVCKDRASPADLRTNHTLNNL

Variants of: B1
Test: protein stability index of a GFP-peptide fusion (GPS, HEK-293T) (PSI 1-6); higher = more stable
Conditions: c terminus: a fixed tail appended
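Also: lentivirally expressed fusions sorted by FACS into six bins by GFP to DsRed ratio, PSI derived from sequencing read proportions per bin multiplied by bin number.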

Point of comparison: G24K, protein stability index 1.76. Against it:
- E15Q — higher, 2.62
- E15V — lower, 1.31
- E15W — higher, 4.68
- C16K — higher, 5.31
- C16M — higher, 3.57
- C16N — higher, 5.28
- A17H — higher, 3.41
- A17I — higher, 3.08
- A17N — higher, 3.32
- A17Q — higher, 3.48
- A17T — higher, 3.02
- K18C — higher, 4.05
- K18H — higher, 2.55
- K18I — higher, 1.99
- K18L — lower, 1.05
- K18S — higher, 4.23
- K18V — higher, 4.91
- K18W — lower, 1
- L19C — higher, 3.04
- L19D — higher, 2.4
- L19E — higher, 5.26
- L19F — higher, 3.88
- L19M — higher, 2.14
- L19T — higher, 2.23
- L19W — higher, 2.99
- I20H — higher, 2.4
- I21D — higher, 3.77
- I21E — lower, 1.31
- I21L — the same, 1.76
- I21S — higher, 2.24
- I21T — higher, 1.83
- I21V — higher, 2.14
- I21W — higher, 2.72
- Q22E — higher, 3.39
- Q22P — higher, 2.51
- A23E — higher, 2.7
- A23G — higher, 2.31
- A23L — higher, 5.75
- A23P — higher, 2.84
- G24A — higher, 2
- G24E — higher, 2.98
- G24H — higher, 3.84
- G24N — higher, 2.86
- G24T — higher, 3.17
- G24V — higher, 2.98

Variants of: B2
Test: as above
Conditions: c terminus: a fixed tail appended

Point of comparison: A13R, protein stability index 3.2. Against it:
- P1A — lower, 2.64
- P1C — higher, 3.87
- P1D — the same, 3.2
- P1E — lower, 2.75
- P1F — lower, 2.11
- P1G — lower, 2.17
- P1H — lower, 2.95
- P1I — lower, 2.63
- P1K — lower, 2.82
- P1L — lower, 2.62
- P1M — lower, 2.62
- P1N — lower, 2.41
- P1Q — lower, 2.7
- P1R — lower, 2.56
- P1S — lower, 2.8
- P1T — lower, 2.99
- P1V — lower, 2.85
- P1W — lower, 1.6
- P1Y — lower, 2.47
- T2A — higher, 3.67
- T2C — lower, 2.9
- T2D — higher, 3.68
- T2E — higher, 3.47
- T2F — lower, 2.33
- T2G — lower, 2.95
- T2H — lower, 2.82
- T2I — lower, 2.71
- T2K — higher, 3.52
- T2L — lower, 2.79
- T2M — lower, 3.14
- T2N — higher, 3.26
- T2P — higher, 3.58
- T2Q — higher, 3.27
- T2R — lower, 3.12
- T2S — higher, 3.24
- T2V — higher, 3.82
- T2W — lower, 2.2
- T2Y — lower, 2.3
- C3A — higher, 4.44
- C3D — higher, 4.75
- C3E — higher, 4.06
- C3F — higher, 3.79
- C3G — higher, 4.3
- C3H — higher, 3.84
- C3I — higher, 4.38
- C3K — higher, 4
- C3L — higher, 4.28
- C3M — higher, 4.08
- C3N — higher, 4.05
- C3P — higher, 4.02
- C3Q — higher, 4.24
- C3R — higher, 4.46
- C3S — higher, 4.55
- C3T — higher, 4.36
- C3V — higher, 4.1
- C3W — higher, 3.89
- C3Y — higher, 3.24
- P4A — lower, 2.72
- P4C — lower, 2.79
- P4D — higher, 3.71
- P4E — higher, 3.42
- P4F — lower, 2.73
- P4G — lower, 2.71
- P4H — lower, 3.03
- P4I — lower, 2.72
- P4K — higher, 3.21
- P4L — higher, 3.32
- P4M — lower, 3.16
- P4N — higher, 3.26
- P4Q — higher, 3.28
- P4R — higher, 3.38
- P4S — lower, 2.98
- P4T — higher, 3.3
- P4V — lower, 3.19
- P4W — lower, 2.58
- P4Y — lower, 3.01
- V5A — higher, 3.33
- V5C — lower, 3.15
- V5D — higher, 4.16
- V5E — higher, 3.65
- V5F — lower, 2.04
- V5G — higher, 3.7
- V5H — lower, 2.36
- V5I — lower, 2.69
- V5K — higher, 3.59
- V5L — lower, 2.47
- V5M — lower, 2.76
- V5N — higher, 3.3
- V5P — higher, 4.71
- V5Q — higher, 3.38
- V5R — lower, 2.87
- V5S — higher, 3.43
- V5T — lower, 3.19
- V5W — lower, 2.78
- V5Y — lower, 1.91
- C6A — higher, 4.55
- C6D — higher, 4.74
- C6E — higher, 4.64
- C6F — higher, 3.84
- C6G — higher, 4.12
- C6H — higher, 4.11
- C6I — higher, 3.59
- C6K — higher, 4.31
- C6L — higher, 3.86
- C6M — higher, 4.22
- C6N — higher, 4.2
- C6P — higher, 4.09
- C6Q — higher, 4.28
- C6R — higher, 4.05
- C6S — higher, 4.39
- C6T — higher, 4.44
- C6V — higher, 4.22
- C6W — higher, 3.21
- C6Y — higher, 4.1
- K7A — lower, 3.19
- K7C — lower, 2.68
- K7D — higher, 3.65
- K7E — higher, 3.88
- K7F — lower, 2.94
- K7G — lower, 2.72
- K7H — lower, 3.13
- K7I — lower, 3.18
- K7L — lower, 2.91
- K7M — lower, 2.87
- K7N — lower, 3.13
- K7P — higher, 4.04
- K7Q — higher, 3.37
- K7R — lower, 2.72
- K7S — lower, 2.68
- K7T — lower, 2.72
- K7V — higher, 3.45
- K7W — lower, 2.84
- K7Y — lower, 2.72
- D8A — lower, 1.94
- D8C — lower, 2.09
- D8E — lower, 2.75
- D8F — lower, 1.71
- D8G — lower, 3.11
- D8H — lower, 2.61
- D8I — lower, 2.65
- D8K — lower, 2.31
- D8L — lower, 2.36
- D8M — lower, 1.92
- D8N — lower, 2.65
- D8P — lower, 2.83
- D8Q — lower, 3
- D8R — lower, 2.02
- D8S — lower, 2.45
- D8T — lower, 2.67
- D8V — lower, 2.39
- D8W — lower, 2.32
- D8Y — lower, 2.02
- R9A — lower, 2.98
- R9C — lower, 2.97
- R9D — higher, 3.99
- R9E — higher, 3.62
- R9F — lower, 3.11
- R9G — higher, 3.66
- R9H — higher, 3.66
- R9I — lower, 2.96
- R9K — lower, 3.16
- R9L — lower, 3.07
- R9M — lower, 2.97
- R9N — lower, 3.12
- R9P — higher, 3.71
- R9Q — higher, 3.55
- R9S — higher, 3.5
- R9T — higher, 3.5
- R9V — lower, 2.9
- R9W — lower, 3.11
- R9Y — lower, 3.08
- A10C — lower, 2.03
- A10D — higher, 3.34
- A10E — higher, 3.33
- A10F — lower, 2.96
- A10G — lower, 2.88
- A10H — higher, 3.23
- A10I — lower, 3.05
- A10K — lower, 3.05
- A10L — lower, 1.96
- A10M — lower, 2.72
- A10N — lower, 2.78
- A10P — lower, 3.17
- A10Q — lower, 3.01
- A10R — lower, 3.03
- A10S — lower, 2.86
- A10T — lower, 2.96
- A10V — lower, 2.45
- A10W — lower, 2.22
- A10Y — lower, 2.56
- S11A — higher, 3.3
- S11C — higher, 3.74
- S11D — higher, 3.44
- S11E — higher, 3.51
- S11F — lower, 2.55
- S11G — lower, 2.94
- S11H — lower, 2.92
- S11I — lower, 2.97
- S11K — higher, 3.32
- S11L — lower, 3.07
- S11M — lower, 3.1
- S11N — lower, 2.86
- S11P — lower, 3.19
- S11Q — lower, 3.07
- S11R — lower, 2.72
- S11T — lower, 3.04
- S11V — lower, 3.1
- S11W — lower, 2.51
- S11Y — lower, 3.11
- P12A — lower, 2.46
- P12C — lower, 2.58
- P12D — higher, 3.5
- P12E — higher, 3.38
- P12F — lower, 2.52
- P12G — lower, 2.9
- P12H — lower, 2.61
- P12I — lower, 2.47
- P12K — lower, 2.83
- P12L — lower, 2.1
- P12M — lower, 2.35
- P12N — lower, 2.89
- P12Q — lower, 3.11
- P12R — lower, 2.36
- P12S — lower, 2.95
- P12T — lower, 2.96
- P12V — lower, 2.85
- P12W — lower, 2.03
- P12Y — lower, 2.69
- A13C — higher, 3.69
- A13D — lower, 3.13
- A13E — higher, 3.86
- A13F — lower, 2.26
- A13G — higher, 3.23
- A13H — lower, 3.1
- A13I — lower, 2.53
- A13K — higher, 3.65
- A13L — lower, 2.31
- A13M — lower, 2.58
- A13N — higher, 3.27
- A13P — higher, 3.29
- A13Q — lower, 2.55
- A13S — lower, 2.87
- A13T — lower, 2.75
- A13V — lower, 2.62
- A13W — lower, 1.81
- A13Y — lower, 2.59
- D14A — lower, 2.5
- D14C — higher, 3.9
- D14E — lower, 3.12
- D14F — lower, 2.21
- D14G — lower, 2.48
- D14H — lower, 2.97
- D14I — lower, 2.45
- D14K — lower, 2.72
- D14L — lower, 2.2
- D14M — lower, 2.2
- D14N — lower, 2.5
- D14P — lower, 2.98
- D14Q — lower, 3.18
- D14R — lower, 2.94
- D14S — lower, 2.98
- D14T — lower, 2.77
- D14V — lower, 2.54
- D14W — lower, 2.6
- D14Y — lower, 2.24
- L15A — higher, 3.35
- L15C — higher, 4.23
- L15D — higher, 3.73
- L15E — higher, 3.86
- L15F — lower, 2.66
- L15G — higher, 3.87
- L15H — lower, 3.14
- L15I — lower, 3
- L15K — higher, 3.21
- L15M — lower, 2.9
- L15N — higher, 3.96
- L15P — higher, 3.34
- L15Q — higher, 3.78
- L15R — higher, 3.33
- L15S — higher, 3.57
- L15T — higher, 3.57
- L15V — higher, 3.67
- L15W — lower, 2.13
- L15Y — lower, 2.83
- R16A — higher, 3.34
- R16C — higher, 3.89
- R16D — higher, 3.91
